Numbering of substitutions follows the chain as printed.
B1: PRO1431 (other)
chain: DIQMTQSPSSLSASVGDRVTITCQASQSINDYLAWYQQKPGKAPKLLIYKASTLASGVPSRFSGSGSGTDFTLTISSLQPEDFATYYCQQGYIITDIDNVFGTGTKVTVLGGGGGSEVQLVESGGGLVQPGGSLRLSCAASGFSFSNSYWICWVRQAPGKCLEWIGCTFVGSSDSTYYANWAKGRFTISRDNSKNTVYLQMNSLRAEDTAVYYCARHPSDAVYGYANNLWGQGTLVTVSSGGGGSGGGGSGGGGSGGGGSIQMTQSPSSLSASVGDRVTITCQASQSINNVLAWYQQKPGKAPKLLIYRASTLASGVPSRFSGSGSGTDFTLTISSLQPEDFATYYCQSSYGNYGDFGCGTKVTVLGGGGGSQVQLQESGPGLVKPSETLSLTCKASGFSFSSGYDMCWVRQPPGKGLEWIACVVAGSVDITYYASWAKGRVTISKDSSKNQVSLKLSSVTAADTAVYYCARKDAYSDAFNLWGQGTLVTVSSGGGGSGGGGSIQMTQSPSSLSASVGDRVTITCQSSESVYSNNQLSWYQQKPGQPPKLLIYDASDLASGVPSRFSGSGSGTDFTLTISSLQPEDFATYYCAGGFSSSSDTAFGGGTKLTVLGGGGGSGGGGSGGGGSGGGGSEVQLVESGGGLVQPGGSLRLSCAASGFSLSSNAMGWVRQAPGKGLEYIGIISVGGFTYYASWAKGRFTISRDNSKNTVYLQMNSLRAEDTATYFCARDRHGGDSSGAFYLWGQGTLVTVSS
notes: trispecific scDb-scFv; also called 38-02-A04 sc13 scDb-i/33-03-G02 sc18 scDb-o/19-01-H04 sc03 scFv
B2: PRO1473 (other)
chain: B1 chain with I2F, M4L, A43S, V374S, Y469F
notes: trispecific scDb-scFv; also called 38-02-A04 sc13 scDb-i/33-03-G02 sc03 scDb-o/19-01-H04 sc03 scFv

Tests used:
Fc tagged human PDL1 = target: T1, Fc tagged human PDL1 (human, UniProt Q9NZQ7 19-239); assay: SPR
T1 construct: Bought (Sino Biological, cat. 10084-H02H); captured on the SPR chip; also called PDL1-Fc chimeric protein
Experimental: (§1) Affinity to PDL1 of the different species was determined by SPR measurements using a Biacore T200 device (GE Healthcare). An antibody specific for the Fc region of human IgGs was immobilized on a sensor chip (CM5 sensor chip, GE Healthcare) by amine-coupling. For all formats, with the exception of the Fc containing Morrison formats, PDL1-Fc chimeric protein from different species were captured by the immobilized antibody.
(§2) Three-fold serial dilutions of the molecules specific for PDL1 (0.12-90 nM) were injected into the flow cells for three minutes and dissociation was monitored for 10 minutes. After each injection cycle, surfaces were regenerated with one injection of a 3 M MgCl₂ solution. The apparent dissociation (kd) and association (kₐ) rate constants and the apparent dissociation equilibrium constant (KD) were calculated using one-to-one Langmuir binding model. Affinity to CD137 of the different species was determined using the identical setup as for PDL1 with the exception that CD137-Fc chimeric protein from different species were captured by the immobilized antibody.

Fc tagged human CD137 = target: T2, Fc tagged human CD137 (human, UniProt Q07011 24-186); assay: SPR
T2 construct: also called CD137-Fc chimeric protein
Experimental: as §1, §2

human PDL1 on cells = human PDL1 on cells (human, UniProt Q9NZQ7 19-290); assay: cell-based or functional assay
[1] = target: T3, CD137 on Jurkat NFkB reporter cells (human, UniProt Q07011 24-255); assay: cell-based or functional assay
[2] = target: T3, CD137 on Jurkat NFkB reporter cells; assay: cell-based or functional assay; remark: listed apart in the source
biotinylated human PDL1 [3] = target: T4, biotinylated human PDL1 (human, UniProt Q9NZQ7 19-238, limits assumed, biotinylated); assay: competition ELISA B7.1/PDL1
T4 construct: also called biotinylated PDL1
Experimental: Plates were blocked for 1 hour at room temperature by adding 300 μl of PBS with 1% BSA and 0.2% tween (dilution buffer) to each well. […] The mixtures were pre-incubated for 1 hour at room temperature under gentle agitation on a rotating mixer (21 rpm) and added to the microplates after 3 wash cycles with 450 μl wash buffer per well. Plates were incubated for 1.5 hours at room temperature under gentle agitation, then 10 ng/ml streptavidin-polyHRP40 was added to each microplate well after three washes with 450 μl of wash buffer per well. After 1 h incubation at RT, plates were washed three times with 450 μl wash buffer and TMB substrate solution was added. The enzymatic reaction was stopped after 6 minutes by addition of 1 M HCl and absorbance was measured at 450 nm using 690 nm as a reference wavelength. For calculation of IC₅₀ values, a four-parameter logistic (4PL) curve fit was performed in Graph Pad Prism using reference subtracted values.

biotinylated human PDL1 [4] = target: T4, biotinylated human PDL1; assay: competition ELISA PD-1/PDL1
Experimental: Plates were blocked for 1 hour at room temperature by adding 300 μl of PBS with i%BSA and 0.2% tween (dilution buffer) to each well. Inhibitors were serially diluted in 3-fold steps to final concentrations ranging from 300 to 0.005 ng/ml in dilution buffer containing 1 ng/ml biotinylated human PDL1. The mixtures were pre-incubated for 1 hour at room temperature under gentle agitation on a rotating mixer (21 rpm) and added to the microplates after 3 wash cycles with 450 μl wash buffer per well. Plates were incubated for 1.5 hours at room temperature under gentle agitation, then 10 ng/ml streptavidin-polyHRP40 was added to each microplate well after three washes with 450 μl of wash buffer per well. After 1 h incubation at RT, plates were washed three times with 450 μl wash buffer and TMB substrate solution was added. The enzymatic reaction was stopped after 6 minutes by addition of 1 M HCl and absorbance was measured at 450 nm using 690 nm as a reference wavelength. For calculation of IC₅₀ values, a four-parameter logistic (4PL) curve fit was performed in Graph Pad Prism using reference subtracted values.

| Binder | koff (Fc tagged human PDL1) [s⁻¹] | Kd (Fc tagged human CD137) [nM] | koff (Fc tagged human CD137) [s⁻¹] | kon (Fc tagged human CD137) [M⁻¹ s⁻¹] | IC50 (ng/ml), NF-AT potency assay, +HSA (human PDL1 on cells) [ng/mL] | rel. IC50 (avelumab/test), +HSA (human PDL1 on cells) [fold] | IC50 (ng/ml) (EC50 in Table 16C), NFkB reporter, HCC827 + IFNg, 24 h, +HSA [1] [ng/mL] | rel. IC50 (PRO1186/test), 24 h [1] [fold] | Area under the curve (calculated using PRO885 normalized data), first line (6 h by the order of the upper part) [2] | Area under the curve (calculated using PRO885 normalized data), second line (24 h by the order of the upper part) [2] | EC50 [ng/ml], NF-kB reporter, HCC827 + IFNg, +HSA, 6 h [2] [ng/mL] | IC10/EC90 ratio, first line (6 h by the order of the upper part) [2] | IC10/EC90 ratio, second line (24 h by the order of the upper part) [2] | Maximum NF-kB activation (rel. to PRO1186) [%], first line (6 h by the order of the upper part) [2] [%] | Maximum NF-kB activation (rel. to PRO1186) [%], second line (24 h by the order of the upper part) [2] [%] | rel. Area under the curve (AUCsample/AUCPRO1186), first line (6 h by the order of the upper part) [2] [fold] | rel. Area under the curve (AUCsample/AUCPRO1186), second line (24 h by the order of the upper part) [2] [fold] | rel. EC50 (EC50, PRO1186/EC50, sample), NF-kB reporter, 6 h [2] [fold] | rel. EC50 (EC50, PRO1186/EC50, sample), NF-kB reporter, 24 h [2] [fold] | rel. IC10/EC90 (ratio of sample/ratio of PRO1186), first line (6 h by the order of the upper part) [2] [fold] | other results |
| --- | --- | --- | --- | --- | --- | --- | --- | --- | --- | --- | --- | --- | --- | --- | --- | --- | --- | --- | --- | --- | --- |
| B1 | 4.5e-05 | 1.7 | 0.00075 | 450000 | 9.83 | 3.73 | 18.4 | 1.02 | 83.2 | 119 | 21 | 5.03 | 16.1 | 55.3 | 68.6 | 0.4 | 0.54 | 0.68 | 1.02 | 0.3 | rel. IC10/EC90 (ratio of sample/ratio of PRO1186), second line (24 h by the order of the upper part) [2]: 1.74 fold; IC50 (biotinylated human PDL1 [3]): 3.31 ng/mL; rel. IC50 (IC50 avelumab/IC50 test) (biotinylated human PDL1 [3]): 0.84 fold; IC50 (biotinylated human PDL1 [4]): 2.75 ng/mL; rel. IC50 (IC50 avelumab/IC50 test) (biotinylated human PDL1 [4]): 0.51 fold |
| B2 | 2.9e-05 | 2 | 0.0006 | 310000 | 35.2 | 1.11 | 0.91 | 3.55 | 52.3 | 188 | 2.4 | 53.9 | 15.7 | 36.2 | 67.4 | 0.31 | 0.73 | 2.3 | 3.55 | 1.01 | Kd (Fc tagged human PDL1): 0.0082 nM; kon (Fc tagged human PDL1): 3.6e+06 M⁻¹ s⁻¹; rel. IC10/EC90 (ratio of sample/ratio of PRO1186), second line (24 h by the order of the upper part) [2]: 0.12 fold; IC50 (biotinylated human PDL1 [3]): 8.89 ng/mL; rel. IC50 (IC50 avelumab/IC50 test) (biotinylated human PDL1 [3]): 1.49 fold; IC50 (biotinylated human PDL1 [4]): 4.14 ng/mL; rel. IC50 (IC50 avelumab/IC50 test) (biotinylated human PDL1 [4]): 0.56 fold |
